Measurements taken from IntAct's records for PubMed 20956942.

B1: Thyroid hormone receptor beta (Homo sapiens), P10828-1 (parent)
chain: MTPNSMTENGLTAWDKPKHCPDREHDWKLVGMSEACLHRKSHSERRSTLKNEQSSPHLIQTTWTSSIFHLDHDDVNDQSVSSAQTFQTEEKKCKGYIPSYLDKDELCVVCGDKATGYHYRCITCEGCKGFFRRTIQKNLHPSYSCKYEGKCVIDKVTRNQCQECRFKKCIYVGMATDLVLDDSKRLAKRKLIEENREKRRREELQKSIGHKPEPTDEEWELIKTVTEAHVATNAQGSHWKQKRKFLPEDIGQAPIVNAPEGGKVDLEAFSHFTKIITPAITRVVDFAKKLPMFCELPCEDQIILLKGCCMEIMSLRAAVRYDPESETLTLNGEMAVTRGQLKNGGLGVVSDAIFDLGMSLSSFNLDDTEVALLQAVLLMSSDRPGLACVERIEKYQDSFLLAFEHYINYRKHHVTHFWPKLLMKVTDLRMIGACHASRFLHMKVECPTELFPPLFLEVFED

Variants of: B1
Conditions: with ncoa3_human NCOA3, Q9Y6Q9

Variant | effect of a mutation on the interaction
MTPNSMTENGLTAWDKPKHCPDREHDWKLVGMSEACLHRKSHSERRSTLKNEQSSPHLIQTTWTSSIFHLDHDDVNDQSVSSAQTFQTEEKKCKGYIPSYLDKDELCVVCGDKATGYHYRCITCEGCKGFFRRTIQKNLHPSYSCKYEGKCVIDKVTRNQCQECRFKKCIYVGMATDLVLDDSKRLAKRKLIEENREKRRREELQKSIGHKPEPTDEEWELIKTVTEAHVATNAQGSHWKQKRKFLPEDIGQAPIVNAPEGGKVDLEAFSHFTKIITPAITRVVDFAIKLPMFCELPCEDQIILLKGCCMEIMSLRAAVRYDPESETLTLNGEMAVTRGQLKNGGLGVVSDAIFDLGMSLSSFNLDDTEVALLQAVLLMSSDRPGLACVERIEKYQDSFLLAFEHYINYRKHHVTHFWPKLLMKVTDLRMIGACHASRFLHMKVECPTELFPPLFLEVFED [K288I] | disrupting interaction
MTPNSMTENGLTAWDKPKHCPDREHDWKLVGMSEACLHRKSHSERRSTLKNEQSSPHLIQTTWTSSIFHLDHDDVNDQSVSSAQTFQTEEKKCKGYIPSYLDKDELCVVCGDKATGYHYRCITCEGCKGFFRRTIQKNLHPSYSCKYEGKCVIDKVTRNQCQECRFKKCIYVGMATDLVLDDSKRLAKRKLIEENREKRRREELQKSIGHKPERTDEEWELIKTVTEAHVATNAQGSHWKQKRKFLPEDIGQAPIVNAPEGGKVDLEAFSHFTKIITPAITRVVDFAKKLPMFCELPCEDQIILLKGCCMEIMSLRAAVRYDPESETLTLNGEMAVTRGQLKNGGLGVVSDAIFDLGMSLSSFNLDDTEVALLQAVLLMSSDRPGLACVERIEKYQDSFLLAFEHYINYRKHHVTHFWPKLLMKVTDLRMIGACHASRFLHMKVECPTELFPPLFLEVFED [P214R] | increasing interaction
MTPNSMTENGLTAWDKPKHCPDREHDWKLVGMSEACLHRKSHSERRSTLKNEQSSPHLIQTTWTSSIFHLDHDDVNDQSVSSAQTFQTEEKKCKGYIPSYLDKDELCVVCGDKATGYHYRCITCEGCKGFFRRTIQKNLHPSYSCKYEGKCVIDKVTRNQCQECRFKKCIYVGMATDLVLDDSKRLAKRKLIEENREKRRREELQKSIGHKPEPTDEEWELIKTVTEAHVATNAQGSHWKQKWKFLPEDIGQAPIVNAPEGGKVDLEAFSHFTKIITPAITRVVDFAKKLPMFCELPCEDQIILLKGCCMEIMSLRAAVRYDPESETLTLNGEMAVTRGQLKNGGLGVVSDAIFDLGMSLSSFNLDDTEVALLQAVLLMSSDRPGLACVERIEKYQDSFLLAFEHYINYRKHHVTHFWPKLLMKVTDLRMIGACHASRFLHMKVECPTELFPPLFLEVFED [R243W] | increasing interaction
MTPNSMTENGLTAWDKPKHCPDREHDWKLVGMSEACLHRKSHSERRSTLKNEQSSPHLIQTTWTSSIFHLDHDDVNDQSVSSAQTFQTEEKKCKGYIPSYLDKDELCVVCGDKATGYHYRCITCEGCKGFFRRTIQKNLHPSYSCKYEGKCVIDKVTRNQCQECRFKKCIYVGMATDLVLDDSKRLAKRKLIEENREKRRREELQKSIGHKPEPTDEEWELIKTVTEAHVATNAQGSHWKQKRKFLPEDIGQAPIVNAPEGGKVDLEAFSHFTKIITPAITRVVDFAKKLPMFCELPCEDQIILLKGCCMEIMSLRAAVRYDPESETLTLNGEMAVTRGQLKNGGLGVVSDAIFDLGMSLSSFNLDDTEVALLQAVLLMSSDRPGLACVERIEKYQDSFLLAFEHYINYRKHHVTHFWPKLLMKVTDLRMIGACHASRFLHMKVECPTELFPPLFLQVFED [E457Q] | decreasing interaction

Variants of: B1
Conditions: with ncor2_human NCOR2, Q9Y618

Variant | effect of a mutation on the interaction
MTPNSMTENGLTAWDKPKHCPDREHDWKLVGMSEACLHRKSHSERRSTLKNEQSSPHLIQTTWTSSIFHLDHDDVNDQSVSSAQTFQTEEKKCKGYIPSYLDKDELCVVCGDKATGYHYRCITCEGCKGFFRRTIQKNLHPSYSCKYEGKCVIDKVTRNQCQECRFKKCIYVGMATDLVLDDSKRLAKRKLIEENREKRRREELQKSIGHKPEPTDEEWELIKTVTEGGVAANAQGSHWKQKRKFLPEDIGQAPIVNAPEGGKVDLEAFSHFTKIITPAITRVVDFAKKLPMFCELPCEDQIILLKGCCMEIMSLRAAVRYDPESETLTLNGEMAVTRGQLKNGGLGVVSDAIFDLGMSLSSFNLDDTEVALLQAVLLMSSDRPGLACVERIEKYQDSFLLAFEHYINYRKHHVTHFWPKLLMKVTDLRMIGACHASRFLHMKVECPTELFPPLFLEVFED [A228G;H229G;T232A] | decreasing interaction
MTPNSMTENGLTAWDKPKHCPDREHDWKLVGMSEACLHRKSHSERRSTLKNEQSSPHLIQTTWTSSIFHLDHDDVNDQSVSSAQTFQTEEKKCKGYIPSYLDKDELCVVCGDKATGYHYRCITCEGCKGFFRRTIQKNLHPSYSCKYEGKCVIDKVTRNQCQECRFKKCIYVGMATDLVLDDSKRLAKRKLIEENREKRRREELQKSIGHKPERTDEEWELIKTVTEAHVATNAQGSHWKQKRKFLPEDIGQAPIVNAPEGGKVDLEAFSHFTKIITPAITRVVDFAKKLPMFCELPCEDQIILLKGCCMEIMSLRAAVRYDPESETLTLNGEMAVTRGQLKNGGLGVVSDAIFDLGMSLSSFNLDDTEVALLQAVLLMSSDRPGLACVERIEKYQDSFLLAFEHYINYRKHHVTHFWPKLLMKVTDLRMIGACHASRFLHMKVECPTELFPPLFLEVFED [P214R] | decreasing interaction
MTPNSMTENGLTAWDKPKHCPDREHDWKLVGMSEACLHRKSHSERRSTLKNEQSSPHLIQTTWTSSIFHLDHDDVNDQSVSSAQTFQTEEKKCKGYIPSYLDKDELCVVCGDKATGYHYRCITCEGCKGFFRRTIQKNLHPSYSCKYEGKCVIDKVTRNQCQECRFKKCIYVGMATDLVLDDSKRLAKRKLIEENREKRRREELQKSIGHKPEPTDEEWELIKTVTEAHVATNAQGSHWKQKWKFLPEDIGQAPIVNAPEGGKVDLEAFSHFTKIITPAITRVVDFAKKLPMFCELPCEDQIILLKGCCMEIMSLRAAVRYDPESETLTLNGEMAVTRGQLKNGGLGVVSDAIFDLGMSLSSFNLDDTEVALLQAVLLMSSDRPGLACVERIEKYQDSFLLAFEHYINYRKHHVTHFWPKLLMKVTDLRMIGACHASRFLHMKVECPTELFPPLFLEVFED [R243W] | increasing interaction
